Reference: patent US20230051538A1 (UNIVERSITY OF BRITISH COLUMBIA, published 2023)
Read-outs that look alike come from different tables or passages of the source. Where no end group is shown, it is not given here.

Assays:
Human Transferrin [1] = biological target: T1, Human Transferrin (human, UniProt P02787 20-698); assay: indirect ELISA
T1 construct: irrelevant antigen in ELISA; also called HT

[2] = biological target: T2, Bovine serum albumin (BSA) (bovine, UniProt P02769 25-607); assay: indirect ELISA
T2 construct: carrier protein alone as ELISA control
T2 sequence (P02769 25-607 limits assumed): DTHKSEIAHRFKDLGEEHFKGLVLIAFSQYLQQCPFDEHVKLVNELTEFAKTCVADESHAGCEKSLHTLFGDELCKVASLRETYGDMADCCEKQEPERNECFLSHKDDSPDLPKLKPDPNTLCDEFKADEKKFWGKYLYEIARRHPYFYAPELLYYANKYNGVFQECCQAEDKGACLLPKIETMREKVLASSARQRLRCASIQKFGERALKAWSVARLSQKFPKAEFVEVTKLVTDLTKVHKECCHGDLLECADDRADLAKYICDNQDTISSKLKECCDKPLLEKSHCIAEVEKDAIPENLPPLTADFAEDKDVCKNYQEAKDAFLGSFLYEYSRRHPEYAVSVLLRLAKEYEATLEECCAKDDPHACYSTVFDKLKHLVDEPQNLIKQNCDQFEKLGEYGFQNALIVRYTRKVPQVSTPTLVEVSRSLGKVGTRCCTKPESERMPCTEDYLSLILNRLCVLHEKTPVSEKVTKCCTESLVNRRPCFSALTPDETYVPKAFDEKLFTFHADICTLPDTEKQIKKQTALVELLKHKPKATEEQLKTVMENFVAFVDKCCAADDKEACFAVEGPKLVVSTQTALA

[3] = biological target: T3, human complement factor H (HCFH) (human, UniProt P08603 19-1231); assay: indirect ELISA
T3 construct: unrelated protein in ELISA
T3 sequence (P08603 19-1231 limits assumed): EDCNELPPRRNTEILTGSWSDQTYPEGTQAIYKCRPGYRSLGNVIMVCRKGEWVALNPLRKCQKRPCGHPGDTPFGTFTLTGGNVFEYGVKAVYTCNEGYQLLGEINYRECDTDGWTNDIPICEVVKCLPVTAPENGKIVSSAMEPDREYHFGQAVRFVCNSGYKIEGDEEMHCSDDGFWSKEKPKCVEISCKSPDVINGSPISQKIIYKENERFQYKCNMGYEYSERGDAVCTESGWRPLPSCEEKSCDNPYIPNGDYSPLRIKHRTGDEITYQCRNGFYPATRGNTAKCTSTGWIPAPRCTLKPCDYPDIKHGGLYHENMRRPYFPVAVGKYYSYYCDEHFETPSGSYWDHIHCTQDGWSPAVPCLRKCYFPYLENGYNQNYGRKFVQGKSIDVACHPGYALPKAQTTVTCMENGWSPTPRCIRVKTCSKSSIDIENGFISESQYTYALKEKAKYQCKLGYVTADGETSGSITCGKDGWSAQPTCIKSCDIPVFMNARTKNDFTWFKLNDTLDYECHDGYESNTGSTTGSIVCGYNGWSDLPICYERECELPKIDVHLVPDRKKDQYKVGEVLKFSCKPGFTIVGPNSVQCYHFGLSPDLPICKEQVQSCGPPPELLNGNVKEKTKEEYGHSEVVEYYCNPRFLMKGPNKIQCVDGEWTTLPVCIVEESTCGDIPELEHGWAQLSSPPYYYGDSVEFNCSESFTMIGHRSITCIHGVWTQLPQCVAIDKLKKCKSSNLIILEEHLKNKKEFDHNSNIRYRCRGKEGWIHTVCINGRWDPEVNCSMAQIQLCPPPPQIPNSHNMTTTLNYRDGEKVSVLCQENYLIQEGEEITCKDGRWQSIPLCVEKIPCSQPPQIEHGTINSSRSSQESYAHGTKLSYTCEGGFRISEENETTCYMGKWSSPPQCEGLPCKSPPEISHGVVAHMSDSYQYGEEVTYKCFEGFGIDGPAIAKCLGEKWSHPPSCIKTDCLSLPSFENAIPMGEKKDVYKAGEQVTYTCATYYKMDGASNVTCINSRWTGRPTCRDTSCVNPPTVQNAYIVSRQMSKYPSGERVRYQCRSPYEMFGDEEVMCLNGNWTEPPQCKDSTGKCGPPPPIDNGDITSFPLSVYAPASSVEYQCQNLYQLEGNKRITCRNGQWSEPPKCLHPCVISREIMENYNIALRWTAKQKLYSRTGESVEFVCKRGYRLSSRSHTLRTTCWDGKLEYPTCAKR

cyclo(CGGGGEKTKGG)-BSA [4] = biological target: T4, cyclo(CGGGGEKTKGG)-BSA (also: conjugated to BSA); assay: indirect ELISA
T4 construct: also called ASPEP(4,2)-C-BSA
T4 peptide: cyclo(CGGGGEKTKGG)

cyclo(CGGGEKTKGG)-BSA [5] = biological target: T5, cyclo(CGGGEKTKGG)-BSA (also: conjugated to BSA via maleimide-based coupling); assay: indirect ELISA
T5 construct: also called ASPEP(3,2)-C-BSA
T5 peptide: cyclo(CGGGEKTKGG)

[6] = biological target: T6, alpha-synuclein sonicated preformed fibrils (soluble fibrils) (human, UniProt P37840 1-140); assay: cell-based or functional assay
[7] = biological target: T7, alpha-synuclein oligomers (UniProt P37840 1-140); assay: cell-based or functional assay
[8] = biological target: T6, alpha-synuclein sonicated preformed …; assay: SPR, antibody immobilized, kinetic fitting, 1:1 model
[9] = biological target: T7, alpha-synuclein oligomers; assay: as above
[10] = biological target: alpha-synuclein in Lewy Body Disease (LBD/DLB) brain (human, UniProt P37840 1-140); assay: dot blot signal on LBD brain extract over control brain extract
[11] = biological target: T6, alpha-synuclein sonicated preformed …; assay: SPR, antibody immobilized (~5000 RU), serial dilutions of analyte
[12] = biological target: T6, alpha-synuclein sonicated preformed …
[13] = biological target: T7, alpha-synuclein oligomers; assay: SPR, antibody immobilized, kinetic fitting, 1:1 model; antigen form: oligomers
Human Transferrin [14] = biological target: T1, Human Transferrin; assay: indirect ELISA; remark: listed apart in the source
Linear CGGGEKTKGG-BSA = biological target: T8, Linear CGGGEKTKGG-BSA (also: conjugated to BSA); assay: indirect ELISA
T8 construct: linear peptide-BSA screening antigen; also called ASPEP(3,2)-L-BSA
T8 peptide: CGGGEKTKGG

[15] = biological target: T2, Bovine serum albumin (BSA); assay: indirect ELISA; remark: listed apart in the source
cyclo(CGGGGEKTKGG), free = biological target: T9, cyclo(CGGGGEKTKGG), free (cyclized via a head-to-tail (C-G) amide bond); assay: indirect ELISA
T9 construct: free cyclic 4,2 construct; also called 4,2-Free-C
T9 peptide: CGGGGEKTKGG

[16] = biological target: T3, human complement factor H (HCFH); assay: indirect ELISA; remark: listed apart in the source
cyclo(CGGGGEKTKGG)-BSA [17] = biological target: T4, cyclo(CGGGGEKTKGG)-BSA; assay: indirect ELISA
cyclo(CGGGEKTKGG)-BSA [18] = biological target: T5, cyclo(CGGGEKTKGG)-BSA; assay: indirect ELISA
cyclo(CGGTKEQGGGG)-BSA [19] = biological target: T10, cyclo(CGGTKEQGGGG)-BSA (also: conjugated to BSA via maleimide-based coupling); assay: indirect ELISA
T10 construct: also called (2,4)-C-BSA; 2,4-C-BSA
T10 peptide: cyclo(CGGTKEQGGGG)

Human Transferrin [20] = biological target: T1, Human Transferrin; assay: indirect ELISA; remark: listed apart in the source
[21] = biological target: T2, Bovine serum albumin (BSA); assay: indirect ELISA; remark: listed apart in the source
HSA [22] = biological target: T11, HSA (human, UniProt P02768 25-609); assay: indirect ELISA
T11 construct: irrelevant antigen in ELISA; read as human serum albumin; also called Hum; SA; HAS

cyclo(CGGTKEQGGGG), free = biological target: T12, cyclo(CGGTKEQGGGG), free (cyclized via a head-to-tail (C-G) amide bond); assay: indirect ELISA
T12 construct: free cyclic peptide, not conjugated; also called (2,4)-C-FREE
T12 peptide: CGGTKEQGGGG

cyclo(CGGTKEQGGGG)-BSA [23] = biological target: T10, cyclo(CGGTKEQGGGG)-BSA; assay: indirect ELISA
Linear CGTKEQGGGG-BSA = biological target: T13, Linear CGTKEQGGGG-BSA (also: conjugated to BSA); assay: indirect ELISA
T13 construct: linear peptide-BSA screening antigen; also called (1,4)-L-BSA; 1,4-L-BSA
T13 peptide: CGTKEQGGGG

cyclo(CGTKEQGGGG)-BSA [24] = biological target: T14, cyclo(CGTKEQGGGG)-BSA (also: conjugated to BSA via maleimide-based coupling); assay: indirect ELISA
T14 construct: also called (1,4)-C-BSA; 1,4-C-BSA
T14 peptide: cyclo(CGTKEQGGGG)

[25] = biological target: T6, alpha-synuclein sonicated preformed …; assay: Millipore SMC, antibody-coated magnetic particles, detection with labeled 4D6
[26] = biological target: T7, alpha-synuclein oligomers; assay: as above
Human Transferrin [27] = biological target: T1, Human Transferrin; assay: indirect ELISA; remark: listed apart in the source
HSA [28] = biological target: T11, HSA; assay: indirect ELISA; remark: listed apart in the source
cyclo(CGGTKEQGGGG)-BSA [29] = biological target: T10, cyclo(CGGTKEQGGGG)-BSA; assay: indirect ELISA
Linear CGGTKEQGG-BSA = biological target: T15, Linear CGGTKEQGG-BSA (also: conjugated to BSA); assay: indirect ELISA
T15 construct: linear peptide-BSA screening antigen; also called (2,2)-L-BSA; (2, 2) L-BSA
T15 peptide: CGGTKEQGG

cyclo(CGTKEQGGGG)-BSA [30] = biological target: T14, cyclo(CGTKEQGGGG)-BSA; assay: indirect ELISA
Linear CGGTKEQGGGG-BSA = biological target: T16, Linear CGGTKEQGGGG-BSA (also: conjugated to BSA); assay: indirect ELISA
T16 construct: linear peptide-BSA screening antigen; also called (2,4)-L-BSA; 2,4-L-BSA
T16 peptide: CGGTKEQGGGG

cyclo(CGGTKEQGG)-BSA = biological target: T17, cyclo(CGGTKEQGG)-BSA (also: conjugated to BSA via maleimide-based coupling); assay: indirect ELISA
T17 construct: also called (2,2)-C-BSA; (2, 2) C-BSA
T17 peptide: cyclo(CGGTKEQGG)

T1 sequence (P02787 20-698 limits assumed): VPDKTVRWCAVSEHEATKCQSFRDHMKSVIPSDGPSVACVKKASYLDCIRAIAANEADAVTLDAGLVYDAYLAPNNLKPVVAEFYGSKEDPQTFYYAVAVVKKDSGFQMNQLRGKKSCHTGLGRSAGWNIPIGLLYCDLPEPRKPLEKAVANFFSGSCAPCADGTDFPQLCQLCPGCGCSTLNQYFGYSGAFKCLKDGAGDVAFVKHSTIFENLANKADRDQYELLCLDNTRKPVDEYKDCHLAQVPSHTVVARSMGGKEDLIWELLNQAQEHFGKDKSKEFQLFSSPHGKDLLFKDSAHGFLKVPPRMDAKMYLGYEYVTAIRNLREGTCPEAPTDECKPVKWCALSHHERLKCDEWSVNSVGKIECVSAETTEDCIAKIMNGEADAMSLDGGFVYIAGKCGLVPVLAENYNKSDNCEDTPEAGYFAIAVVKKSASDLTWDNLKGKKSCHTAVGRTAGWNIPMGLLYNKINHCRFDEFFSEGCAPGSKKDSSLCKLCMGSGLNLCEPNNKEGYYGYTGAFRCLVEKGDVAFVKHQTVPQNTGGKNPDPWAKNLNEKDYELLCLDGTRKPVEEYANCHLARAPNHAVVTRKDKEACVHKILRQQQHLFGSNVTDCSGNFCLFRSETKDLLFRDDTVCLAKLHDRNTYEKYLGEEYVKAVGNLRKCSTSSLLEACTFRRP

B1: 12B12 (antibody, V domains shown)
VH: EVQLQQSGAELVKPGASVKLSCTASGFNIKDTYIHWVKQRPEQGLEWIGRIDPANGNTNYDPKFQDKATITADTSSNTAYLQFSSLTSEDTAVYYCSNWDYFDYWGQGTTLTVSS
VL: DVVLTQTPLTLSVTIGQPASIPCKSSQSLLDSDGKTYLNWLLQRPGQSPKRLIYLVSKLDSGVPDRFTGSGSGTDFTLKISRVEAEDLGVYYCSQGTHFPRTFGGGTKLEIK
- ELISA reading (Human Transferrin [1]): 0.045
- ELISA reading [2]: 0.055
- ELISA reading [3]: 0.059
- ELISA reading (cyclo(CGGGGEKTKGG)-BSA [4]): 0.851
- ELISA reading (cyclo(CGGGEKTKGG)-BSA [5]): 1.28
- endogenous phosphorylated α-syn aggregates in neurons exposed to PFFs, antibody at 0.05 µM [6]: 145 % of the control
- dopaminergic neuron survival, antibody at 250 nM [7]: 92.6 % of the control
- koff [8]: 2.09e-05 s⁻¹
- kon [8]: 2530 M⁻¹ s⁻¹
- koff [9]: 0.0013 s⁻¹
- kon [9]: 1320 M⁻¹ s⁻¹
- Fold of reactivity LBD vs. Control (LBD / Control) [10]: 20.3 fold
- fold binding affinity, soluble fibril relative to monomer [11]: > 10 fold
- fold binding affinity, soluble fibril relative to tetramer [11]: > 20 fold
- Kd [12]: 8 nM
- Kd [13]: 985 nM

B2: 11B6 (antibody, V domains shown)
VH: QVQLQQSGAELMKPGASVKISCKATGYTFSSYWVEWVKLRPGHGLEWIGEIFPGSGSANYNEKFKGKATFTADTSSNTAYMQLSSLTSEDSAVYYCTSRWYPDYFEYWGQGTTLTVSS
VL: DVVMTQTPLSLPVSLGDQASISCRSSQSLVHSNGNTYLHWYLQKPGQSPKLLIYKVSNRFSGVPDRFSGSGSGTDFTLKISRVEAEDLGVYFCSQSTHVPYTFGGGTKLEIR
- dopaminergic neuron survival, antibody at 250 nM [7]: 81 % of the control
- ELISA reading (Human Transferrin [14]): 0.051
- ELISA reading (Linear CGGGEKTKGG-BSA): 0.044
- ELISA reading [15]: 0.041
- ELISA reading (cyclo(CGGGGEKTKGG), free): 1.27
- ELISA reading [16]: 0.042
- ELISA reading (cyclo(CGGGGEKTKGG)-BSA [17]): 1.59
- ELISA reading (cyclo(CGGGEKTKGG)-BSA [18]): 0.047

B3: 9D8 (antibody, V domains shown)
VH: QVTLKESGPGILQPSQTLSLTCSFSGFSLSTSGMGVGWIRQPSGKGLEWLAHIWWDGDKRYNPALRSRLTISKDTSSNQVFLKIASVDTADTATYYCTRIVVPNFLFTYWGQGTLVTVSA
VL: DVLMTQTPLSLPVSLGDQASISCRSSQSIVQSNGNTYLEWYLQKPGQSPNLLIYKVSNRFSGVPDRFSGSGSGTDFTLKISRVEAEDLGVYYCFQGSHVPFTFGSGTKLEIK
- ELISA reading (cyclo(CGGTKEQGGGG)-BSA [19]): 1.18
- ELISA reading (Human Transferrin [20]): 0.06
- ELISA reading [21]: 0.055
- ELISA reading (HSA [22]): 0.054
- ELISA reading (cyclo(CGGTKEQGGGG), free): 0.227
- ELISA reading (cyclo(CGGTKEQGGGG)-BSA [23]): 0.726
- ELISA reading (Linear CGTKEQGGGG-BSA): 0.043
- ELISA reading (cyclo(CGTKEQGGGG)-BSA [24]): 0.048
- dopaminergic neuron survival, antibody at 250 nM [7]: 96.5 % of the control
- fold selectivity for fibrils versus monomers (from LLoQ) [25]: 93300 fold
- fold selectivity for oligomers versus monomers (from LLoQ) [26]: 9300 fold

B4: 2E9 (antibody, V domains shown)
VH: EVKLLESGGGLVQPGGSLKLSCAASGFDFSRYWMNWVRQAPGKGLEWIGEINPHSSTINYAPSLKDKFIISRDNAKNTLYLQMSKVRSEDTALYYCGRGDYVDYWGLGTTLTVSS
VL: DIVMSQSPSSLAVSVGEKVTMSCKSSQSLLYSRNQKNYLAWYQQKPGQSPKLLIYWASTRESGVPDRFTGSGSGTDFTLTISSVKADDLAVYYCQQYYSYPRTFGGGTKLEIK
notes: also called test clone 2E9; test mAb 2E9
- Kd [8]: 9 nM
- Kd [9]: 431 nM
- ELISA reading (Human Transferrin [27]): 0.054
- ELISA reading (HSA [28]): 0.044
- ELISA reading (cyclo(CGGTKEQGGGG)-BSA [29]): 0.055
- ELISA reading (Linear CGGTKEQGG-BSA): 0.051
- ELISA reading (cyclo(CGTKEQGGGG)-BSA [30]): 1.91
- ELISA reading (Linear CGGTKEQGGGG-BSA): 0.048
- ELISA reading (cyclo(CGGTKEQGG)-BSA): 0.047
